Measured values reported in the RNAGym collection of RNA variant scans (doi:10.7554/elife.90254).

B1: LINE1-full (parent)
chain: UACGUAGGUGGUUUUCCCCUGAUAGUGCUAAGGGGGCCUGGAAGUUUGGACUGGGCAGAGCUCAACACAGCGUGGCAAAGUGGCUGUGGCUAGACUGCCUCUCUGGAUUCCUCGUCACUCAGCAGGGCAUCUCUGAGAGAAAUGCC

Variants of: B1
Experiment: self-cleavage, relative activity (ratio to wild type); higher = more cleavage; in vitro, sequencing; the parent is a self-cleaving ribozyme

| Variant | self-cleavage |
| --- | --- |
| U62G A129G | 0.15 |
| G72A U100C | 0.32 |
| C3U U20A | 0.83 |
| U9C U96C | 0.14 |
| U62A C71G | 0.05 |
| A78G A141U | 1.66 |
| U85G A124G | 0.32 |
| G10A A78U | 1.83 |
| G10A U73G | 1.14 |
| G34C A138G | 2.05 |
| U102C G126U | 1.59 |
| A24G A78G | 1.19 |
| A65U G88U | 0.02 |
| G44A U91C | 0.65 |
| C28A G88A | 0 |
| U13G | 0.93 |
| G41A A78U | 2.63 |
| A107G A140G | 1.87 |
| A31G U85C | 0.33 |
| G126A A141U | 0.67 |
| G72U A138G | 1.55 |
| C71A U73C | 0.31 |
| G33A G83A | 0.92 |
| U12A U108C | 1.28 |

| Variant | self-cleavage |
| --- | --- |
| G127U U130C | 1.77 |
| U87A U132A | 0.07 |
| G25U | 1.45 |
| A31U | 1.03 |
| A69G U104A | 0.2 |
| A43G U91C | 0.37 |
| A107U U109A | 1.98 |
| U47C A65C | 0 |
| A31G A124U | 1.3 |
| U26G U100C | 1.22 |
| A65C G105U | 0.03 |
| G41C A138G | 0.97 |
| A117C A121U | 2.02 |
| U46A U132C | 1.32 |
| A64C A129G | 0.51 |
| C3U C123U | 0.63 |
| U5C A141G | 0.92 |
| U15C | 1.42 |
| U26C G75U | 0.57 |
| G4A A24U | 1.8 |
| A42C C110A | 1.68 |
| U62A U102G | 0.08 |
| U108C G127A | 1.64 |
| U20C A138U | 1.42 |

| Variant | self-cleavage |
| --- | --- |
| A59U A77G | 1.01 |
| G4A U13C | 1.12 |
| A57U A77U | 0.05 |
| U96C U115G | 0.21 |
| C95G U104C | 0.02 |
| U26A G58U | 0.05 |
| C28A A79U | 1.47 |
| U87A U115A | 0.1 |
| A57C U130A | 0.03 |
| G126U | 1.18 |
| U85C G97U | 0.02 |
| U15A U134C | 1.19 |
| U108C C111A | 1.76 |
| A79U A140G | 1.85 |
| G44A A94U | 0 |
| U73G A140G | 1.21 |
| C19U U132C | 0 |
| A65U G80A | 0.28 |
| A22G C131U | 1.03 |
| C19A A69G | 0.42 |
| U104C U112G | 1.41 |
| G32A U115A | 1.5 |
| A124C A138C | 1.86 |
| U85G C118U | 0.14 |

| Variant | self-cleavage |
| --- | --- |
| A59G U130C | 0.17 |
| A64U U115A | 0.57 |
| A6U G126U | 1.16 |
| U14C U20C | 1.05 |
| G82A A94U | 0.33 |
| A129U A136G | 1 |
| A107U A142G | 2.36 |
| A43G A77G | 2.07 |
| U52A U143A | 1.37 |
| U13C G75A | 1.16 |
| A31G U112C | 1.3 |
| U62A A67U | 0.06 |
| A92G A121G | 0.11 |
| U5C U112C | 0.99 |
| U1A A142G | 1.19 |
| G70U A121G | 0.27 |
| G36A C95G | 0.02 |
| U134A A140C | 0.55 |
| A42U A79G | 1.16 |
| G21A | 1.14 |
| U91C G114A | 0.57 |
| A64U A65U | 0.02 |
| U1C U13C | 0.62 |
| G34U A92G | 0.14 |

| Variant | self-cleavage |
| --- | --- |
| U115A A140G | 1.27 |
| A22U G105A | 1.29 |
| G97A U134G | 0.06 |
| A6G A24U | 1.21 |
| U102C A138U | 1.49 |
| G40A G88A | 0.04 |
| C76U U85C | 0.36 |
| U26A A43U | 0.89 |
| C38U U134A | 1.23 |
| A69G C133A | 0.47 |
| U29C A107G | 0.7 |
| G105U U143A | 1.34 |
| G122C U134C | 1.68 |
| G36U A69G | 0 |
| C123G | 1.36 |
| U13G A67G | 1.9 |
| U73C C116U | 1.39 |
| U14A U23C | 1.44 |
| G135U A140G | 1.08 |
| C18U U73C | 1.53 |
| A65U A124U | 0.18 |
| G55A C95U | 0.11 |
| G54U A138U | 1.01 |
| U46C U108A | 1.4 |

| Variant | self-cleavage |
| --- | --- |
| U15A A129G | 0.65 |
| U13C A50U | 0.83 |
| G35C U143A | 1.39 |
| U15C U115G | 1.07 |
| C113U U119A | 0.82 |
| G80U U100C | 1.02 |
| C61U U96C | 0.03 |
| G33A A138U | 1.19 |
| A57U G126A | 0.07 |
| A107G A129G | 1.63 |
| G4U U130A | 1.16 |
| A64U C95U | 0.07 |
| A30G C110U | 1.25 |
| U112C A136G | 1.51 |
| U9A A78U | 1.65 |
| U14C C18A | 1.24 |
| U15C A78G | 1.34 |
| G54A A67G | 0.12 |
| U15A G60U | 0.07 |
| A92C A129G | 0 |
| C38U A64U | 0.35 |
| C19G A78G | 1.24 |
| C90U U132A | 0.01 |
| U14C G60U | 0.04 |

| Variant | self-cleavage |
| --- | --- |
| A22G A117U | 1.29 |
| A22U C38A | 0.64 |
| G36C U87A | 0.14 |
| U73A G135A | 1.66 |
| U85C C90A | 0.07 |
| C51U A69U | 0.04 |
| U14C A65U | 0.19 |
| U26A A59G | 0.06 |
| U81G A92G | 0.24 |
| G86A G126U | 0.02 |
| A31C A142G | 0.53 |
| A121U A124C | 1.14 |
| C38U U52A | 1.25 |
| U26A | 0.94 |
| U52C U91C | 0.67 |
| A31U U85G | 0.15 |
| U87C G114A | 0.23 |
| U81C U115A | 1.44 |
| C37G U132C | 0.94 |
| G40A U143C | 1.26 |
| A67U C128U | 0.1 |
| G58U A69G | 0.07 |
| U5A A59G | 0.11 |
